Patent US20170291958

Biological target: Flag-KRAS

B1: Flag-PIASγ (protein)
chain: MAAELVEAKNMVMSFRVSDLQMLLGFVGRSKSGLKHELVTRALQLVQFDCSPELFKKIKELYETRYAKKNSEPAPQPHRPLDPLTMHSTYDRAGAVPRTPLAGPNIDYPVLYGKYLNGLGRLPAKTLKPEVRLVKLPFFNMLDELLKPTELVPQNNEKLQESPCIFALTPRQVELIRNSRELQPGVKAVQVVLRICYSDTSCPQEDQYPPNIAVKVNHSYCSVPGYYPSNKPGVEPKRPCRPINLTHLMYLSSATNRITVTWGNYGKSYSVALYLVRQLTSSELLQRLKTIGVKHPELCKALVKEKLRLDPDSEIATTGVRVSLICPLVKMRLSVPCRAETCAHLQCFDAVFYLQMNEKKPTWMCPVCDKPAPYDQLIIDGLLSKILSECEDADEIEYLVDGSWCPIRAEKERSCSPQGAILVLGPSDANGLLPAPSVNGSGALGSTGGGGPVGSMENGKPGADVVDLTLDSSSSSEDEEEEEEEEEDEDEEGPRPKRRCPFQKGLVPAC
- KRAS sumoylation (HA-SUMO3 blot of Flag immunoprecipitates): Expression of PIASγ enhanced KRAS sumoylation, which was further stimulated by expression of UBC9 (FIG. 3D)
